These are literature values, as cited in paper PMC8417749.

The target in data set [1] is CXCR1 (Homo sapiens) (UniProt P25024).
The target of data set [2] is CXCR2 (Homo sapiens) (UniProt P25025).
Sequence of CXCR2 (Homo sapiens) (P25025 whole entry): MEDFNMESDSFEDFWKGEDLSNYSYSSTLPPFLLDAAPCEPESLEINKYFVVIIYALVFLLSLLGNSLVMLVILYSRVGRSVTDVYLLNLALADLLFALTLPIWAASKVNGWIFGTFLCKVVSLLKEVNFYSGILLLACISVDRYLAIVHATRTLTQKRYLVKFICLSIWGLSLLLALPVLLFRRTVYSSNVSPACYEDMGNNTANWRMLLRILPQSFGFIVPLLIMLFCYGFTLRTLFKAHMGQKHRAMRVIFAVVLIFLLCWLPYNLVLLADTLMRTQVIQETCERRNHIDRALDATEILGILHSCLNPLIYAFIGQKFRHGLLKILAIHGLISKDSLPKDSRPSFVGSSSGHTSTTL

Sequence of IL-8 (P10145 28-99): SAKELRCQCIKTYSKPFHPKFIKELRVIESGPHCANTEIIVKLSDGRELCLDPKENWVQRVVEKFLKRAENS
Sequence of CXCR1 (Homo sapiens) (P25024 whole entry): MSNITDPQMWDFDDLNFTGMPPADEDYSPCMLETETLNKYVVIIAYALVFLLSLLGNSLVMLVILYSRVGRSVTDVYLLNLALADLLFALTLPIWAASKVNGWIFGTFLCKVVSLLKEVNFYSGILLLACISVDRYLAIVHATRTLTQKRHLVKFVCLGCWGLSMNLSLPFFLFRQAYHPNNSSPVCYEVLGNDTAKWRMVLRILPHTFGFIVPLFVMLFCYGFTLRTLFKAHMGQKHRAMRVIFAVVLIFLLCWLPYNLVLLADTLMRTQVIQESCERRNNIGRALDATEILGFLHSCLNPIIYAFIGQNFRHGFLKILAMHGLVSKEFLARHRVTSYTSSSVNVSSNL

For orientation: Kd means the constant that tells how readily two partners part at equilibrium. As to IL-8 (from UniProt P10145), the Kd in data set [1] and in data set [2] was 2 nM in each case.
